The record followed here is patent US11872270B2, “A*03 restricted peptides for use in immunotherapy against cancers and related methods” (Immatics Biotechnologies GmbH, priority 2018, dated 2024).

Assay [1] relates to CD8+ T cells. Briefly: In vitro T-cell priming assay (immunogenicity) with aAPCs loaded with peptide/MHC complexes and anti-CD28 antibody. Particulars: for Wells positive [%]: in vitro immunogenicity; for in vitro immunogenicity (peptide-specific CD8+ T cell response): healthy donors, multimer staining after three cycles of stimulation. In kind it is cell-based, human.
The target in assay [2] is HLA-A*03:01 (Homo sapiens, UniProt P04439). The assay is described as follows: MHC binding assay (UV-ligand exchange, β2m ELISA). Particulars: binding to HLA-A*03:01, UV-ligand exchange, β2m ELISA. The essentials: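 Peptide-MHC complexes formed by UV-ligand exchange of a UV-cleavable peptide for the test peptide; exchange yield quantified by β2m ELISA. Streptavidin-coated capture, samples diluted 100-fold, 1 h at 37 °C, HRP anti-β2m detection, TMB read at 450 nm against HLA-A*02:01/MLA-001 monomer standards (15–500 ng/ml).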
(In general: ELISA stands for enzyme-linked immunosorbent assay.)

Setting [3] is: HLA-A*03 restricted peptides, Table 10b.

For “234 (VVFPFPVNK; listed as Homo sapiens) [compound 234]”, the “Wells positive [%]” value in assay [1] (Table 10a) is “+ (<20% = +)”. In the case of “GLASRILDAK (listed as Homo sapiens) [SEQ ID NO: 248]”, the “in vitro immunogenicity (peptide-specific CD8+ T cell response)” value in assay [1] was “peptide-specific in vitro CD8+ T cell responses”. Turning to “29 (KVLSILSRLK; listed as Homo sapiens) [compound 29]”, the “Wells positive [%]” value in assay [1] (setting [3]) is reported as ““+” (1-19% = +)”. Further, the “Peptide exchange (MHC class I binding score, peptide exchange yield)” value (“Peptide exchange” for short) in assay [2] is “+++ (>50 = +++)”. Turning to “69 (GLSTILLYH; listed as Homo sapiens) [compound 69]”, in assay [1] (setting [3]), the “Wells positive [%]” value is ““+” (1-19% = +)”. Further, the “Peptide exchange” value in assay [2] is “++++ (>75% = ++++)”. As for “52 (GMYEYGSIEK; listed as Homo sapiens) [compound 52]”, in assay [1] (setting [3]), the “Wells positive [%]” value is recorded as ““+” (1-19% = +)”. Also, the “Peptide exchange” value in assay [2] is reported as “++++ (>75% = ++++)”. The matching figures for “57 (RVLYRPQLEK; listed as Homo sapiens) [compound 57]”: ““+” (1-19% = +)” and “+++ (>50 = +++)”.

As to “232 (AVAPPTPASK; listed as Homo sapiens) [compound 232]”, in assay [1] (Table 10a), the “Wells positive [%]” value is given as “+ (<20% = +)”. Regarding “71 (VLYELGIIGNNK; listed as Homo sapiens) [compound 71]”, the “Wells positive [%]” value in assay [1] (setting [3]) is given as ““+” (1-19% = +)”. In addition, the “Peptide exchange” value in assay [2] is reported as “+++ (>50 = +++)”. For “237 (VLYGPAGLGK; listed as Homo sapiens) [compound 237]”, the “Wells positive [%]” value in assay [1] (Table 10a) is “+ (<20% = +)”. Regarding “214 (KLFTSVFGVGLK; listed as Homo sapiens) [compound 214]”, in assay [1] (setting [3]), the “Wells positive [%]” value is recorded as ““+” (1-19% = +)”. In addition, the “Peptide exchange” value in assay [2] is reported as “++++ (>75% = ++++)”.

Regarding “233 (KTYETNLEIKK; listed as Homo sapiens) [compound 233]”, the “Wells positive [%]” value in assay [1] (Table 10a) is reported as “+ (<20% = +)”.

In the case of “ATSGVPVYK (listed as Homo sapiens) [SEQ ID NO: 249]”, the “in vitro immunogenicity (peptide-specific CD8+ T cell response)” value in assay [1] is “peptide-specific in vitro CD8+ T cell responses”. As to “64 (SVLSRMLVR; listed as Homo sapiens) [compound 64]”, the “Wells positive [%]” value in assay [1] (setting [3]) was ““+” (1-19% = +)”. Besides, the “Peptide exchange” value in assay [2] was “++++ (>75% = ++++)”.

“46 (VVTGNVPLK; listed as Homo sapiens) [compound 46]”: the “Wells positive [%]” value in assay [1] (setting [3]) is listed as ““+” (1-19% = +)”. Besides, the “Peptide exchange” value in assay [2] is “+++ (>50 = +++)”. For “249 (ATSGVPVYK; listed as Homo sapiens) [compound 249]”, in assay [1] (Table 10a), the “Wells positive [%]” value is recorded as “++++ (>=70% = ++++)”. Consider “248 (GLASRILDAK; listed as Homo sapiens) [compound 248]”, for which the “Wells positive [%]” value in assay [1] (Table 10a) is reported as “+ (<20% = +)”.

In the case of “33 (KLLEDMVEK; listed as Homo sapiens) [compound 33]”, the “Wells positive [%]” value in assay [1] (setting [3]) is ““+” (1-19% = +)”. Moreover, in assay [2], the “Peptide exchange” value is on record as “++ (>20% = ++)”. Turning to “1 (RVYPHKTLY; listed as Homo sapiens) [compound 1]”, the “Peptide exchange” value in assay [2] is “+++ (>50 = +++)”. Take “219 (ALERKFRQK; listed as Homo sapiens) [compound 219]”: the “Peptide exchange” value in assay [2] is reported as “++++ (>75% = ++++)”. Consider “137 (TVYVAMCHKF; listed as Homo sapiens) [compound 137]”, for which the “Peptide exchange” value in assay [2] is given as “++++ (>75% = ++++)”. Still for that read-out and setting: the result for “195 (KLQAKVLQY; listed as Homo sapiens) [compound 195]” reads “++++ (>75% = ++++)”; that for “201 (KVADFGLARLLK; listed as Homo sapiens) [compound 201]”, “++++ (>75% = ++++)”. Turning to “103 (SIYKKAVYR; listed as Homo sapiens) [compound 103]”, the “Peptide exchange” value in assay [2] was “++++ (>75% = ++++)”. Still for that read-out and setting: then “216 (RVSSVKLISK; listed as Homo sapiens) [compound 216]”, with “+++ (>50 = +++)”. As for “55 (RLSAESKDLLK; listed as Homo sapiens) [compound 55]”, the “Peptide exchange” value in assay [2] was “+++ (>50 = +++)”. Regarding “149 (TVFLSKYLKK; listed as Homo sapiens) [compound 149]”, the “Peptide exchange” value in assay [2] is on record as “+++ (>50 = +++)”.

In the case of “12 (KVLTRNIEY; listed as Homo sapiens) [compound 12]”, the “Peptide exchange” value in assay [2] is reported as “+++ (>50 = +++)”. For the substance “172 (SLLEADPFLK; listed as Homo sapiens) [compound 172]”, the “Peptide exchange” value in assay [2] is on record as “+++ (>50 = +++)”. In the case of “176 (RLYDAYVNR; listed as Homo sapiens) [compound 176]”, the “Peptide exchange” value in assay [2] is listed as “++++ (>75% = ++++)”. Same read-out and setting: then “259 (RSYVPLAH; listed as Homo sapiens) [compound 259]”, with “++++ (>75% = ++++)”. The same measure, in the same setting: then “3 (LLYGNGPGYVLK; listed as Homo sapiens) [compound 3]”, with “++++ (>75% = ++++)”; and “72 (KLYPQCLQK; listed as Homo sapiens) [compound 72]”, with “++++ (>75% = ++++)”.

As for “81 (HLFLPFSYK; listed as Homo sapiens) [compound 81]”, the “Wells positive [%]” value in assay [1] (setting [3]) is ““+” (1-19% = +)”. For the same substance, in assay [2], the “Peptide exchange” value was “++++ (>75% = ++++)”. Turning to “107 (ILNLNKMVK; listed as Homo sapiens) [compound 107]”, the “Peptide exchange” value in assay [2] is “+++ (>50 = +++)”.

Regarding “61 (SLYDSEPRKK; listed as Homo sapiens) [compound 61]”, the “Peptide exchange” value in assay [2] is recorded as “++++ (>75% = ++++)”. As to “225 (RVYPRPPSKTY; listed as Homo sapiens) [compound 225]”, in assay [2], the “Peptide exchange” value is recorded as “++++ (>75% = ++++)”. Still for that read-out and setting: the result for “258 (QVRDTLKIVFK; listed as Homo sapiens) [compound 258]” reads “+++ (>50 = +++)”. For the substance “163 (MLYYPSVSR; listed as Homo sapiens) [compound 163]”, the “Peptide exchange” value in assay [2] is listed as “++++ (>75% = ++++)”. As to “120 (TRMQKAGFLYY; listed as Homo sapiens) [compound 120]”, in assay [2], the “Peptide exchange” value is given as “++ (>20% = ++)”.

Take “184 (KVLEPPLGAR; listed as Homo sapiens) [compound 184]”: the “Peptide exchange” value in assay [2] is “+++ (>50 = +++)”. Regarding “45 (KCYEVGMMK; listed as Homo sapiens) [compound 45]”, in assay [1] (setting [3]), the “Wells positive [%]” value is given as ““+” (1-19% = +)”. Besides, the “Peptide exchange” value in assay [2] is given as “++++ (>75% = ++++)”. With “110 (IIFIPATILLK; listed as Homo sapiens) [compound 110]”, in assay [2], the “Peptide exchange” value is listed as “++++ (>75% = ++++)”. Still for that read-out and setting: then “138 (VSLSKMLKK; listed as Homo sapiens) [compound 138]”, with “+++ (>50 = +++)”. On the same count and under the same terms, the result for “50 (HSAGIFSMY; listed as Homo sapiens) [compound 50]” reads “++ (>20% = ++)”; that for “34 (AIGTPLIGK; listed as Homo sapiens) [compound 34]”, “+++ (>50 = +++)”. “197 (RIVDYLLEK; listed as Homo sapiens) [compound 197]”: the “Peptide exchange” value in assay [2] is “++++ (>75% = ++++)”. As to “90 (RTALLWGLKK; listed as Homo sapiens) [compound 90]”, in assay [2], the “Peptide exchange” value is “++++ (>75% = ++++)”. Turning to “53 (KQALSLVRK; listed as Homo sapiens) [compound 53]”, in assay [2], the “Peptide exchange” value was “+++ (>50 = +++)”. As for “206 (RLYEMILQR; listed as Homo sapiens) [compound 206]”, the “Peptide exchange” value in assay [2] was “++++ (>75% = ++++)”. As to “77 (VVDDSQLPK; listed as Homo sapiens) [compound 77]”, the “Wells positive [%]” value in assay [1] (setting [3]) was ““+” (1-19% = +)”. Besides, the “Peptide exchange” value in assay [2] was “++ (>20% = ++)”.

Consider “161 (MKTLPAMLGTGK; listed as Homo sapiens) [compound 161]”, for which the “Peptide exchange” value in assay [2] is recorded as “++ (>20% = ++)”. Same read-out and setting: then “94 (GMTLLCEALK; listed as Homo sapiens) [compound 94]”, with “++ (>20% = ++)”; and “91 (IMKRQVKCITK; listed as Homo sapiens) [compound 91]”, with “+ (>10% = +)”; and “125 (VVYDTMIEKF; listed as Homo sapiens) [compound 125]”, with “++++ (>75% = ++++)”.

For the substance “18 (RLYYSFKNITK; listed as Homo sapiens) [compound 18]”, in assay [2], the “Peptide exchange” value is listed as “++++ (>75% = ++++)”. Take “24 (KLETGVVKK; listed as Homo sapiens) [compound 24]”: in assay [2], the “Peptide exchange” value is given as “++++ (>75% = ++++)”. Regarding “83 (KLADSVMAGK; listed as Homo sapiens) [compound 83]”, the “Peptide exchange” value in assay [2] is reported as “++++ (>75% = ++++)”. On to “174 (KMMKRLMTVEK; listed as Homo sapiens) [compound 174]”, for which the “Peptide exchange” value in assay [2] was “++++ (>75% = ++++)”.
